Among the data in patent US20060062761A1 are IC50 values, retold here.

One test addresses HLA-DR DRB1*0701 on fixed MOU (MANN) cells (human). Kind of test: competition. As to conditions: modification not given.
As to KEDSILAVRKYFQRI [38], the IC50 (usually the point on the concentration scale where inhibition reaches its midpoint) is above 500 µM.
The molecule SCLKDRHDFGFPQEE [10] showed a half-inhibitory concentration (IC50) above 500 µM.
Same read-out and setting: next, SILAVRKYFQRITLY [39]: 60 µM.
On the same count and under the same terms, next, VVRAEIMRSFSLSTN [48]: 7 µM.
The same measure, in the same setting: for IQGVGVTETPLMKED [34] the value was above 500 µM.
FGNQFQKAETIPVLH [15] showed an IC50 of 25 µM.
For the molecule AVRKYFQRITLYLKE [40], the IC50 was determined as 70 µM.
On the same count and under the same terms, for SPCAWEVVRAEIMRS [46] the value was 8 µM.
On the same count and under the same terms, next, PLMKEDSILAVRKYF [37]: above 500 µM.
Same read-out and setting: for SLFSCLKDRHDFGFP [9] the value was above 500 µM; for KKYSPCAWEVVRAEI [45], 200 µM; for QEEFGNQFQKAETIP [14], above 500 µM.
TLYLKEKKYSPCAWE [43] came in with a concentration for half-maximal inhibition (IC50) above 500 µM.
The molecule AEIMRSFSLSTNLQE [49] came in with a half-inhibitory concentration (IC50) of 15 µM.
Molecule HDFGFPQEEFGNQFQ [12] displayed an IC50 above 500 µM.
Still for that read-out and setting: for LKEKKYSPCAWEVVR [44] the value was above 500 µM; for GFPQEEFGNQFQKAE [13], above 500 µM.
The same measure, in the same setting: for VGVTETPLMKEDSIL [35] the value was above 500 µM.
Still for that read-out and setting: next, KDRHDFGFPQEEFGN [11]: above 500 µM; TETPLMKEDSILAVR [36]: above 500 µM.

A further test deals with HLA-DR DRB1*0101 on fixed HOM-2 cells (human). Kind of test: competition. Conditions: modification not given.
AQMRRISLFSCLKDR [7]: the 50% inhibitory concentration (IC50) was found to be 150 µM.
Same read-out and setting: next, KEDSILAVRKYFQRI [38]: above 500 µM; SILAVRKYFQRITLY [39]: 100 µM; VVRAEIMRSFSLSTN [48]: 25 µM.
Consider IQGVGVTETPLMKED [34], for which the IC50 is above 500 µM.
Take QFQKAETIPVLHEMI [16]: the IC50 came to 350 µM.
Molecule AVRKYFQRITLYLKE [40] yielded an IC50 of 95 µM.
Turning to PLMKEDSILAVRKYF [37], the concentration for half-maximal inhibition (IC50) was 85 µM.
On the same count and under the same terms, next, RRISLFSCLKDRHDF [8]: 180 µM; AEIMRSFSLSTNLQE [49]: 15 µM; VGVTETPLMKEDSIL [35]: above 500 µM.
TETPLMKEDSILAVR [36] returned a 50% inhibitory concentration (IC50) of 25 µM.

For another test, the target named is HLA-DR DRB1*0401 on fixed WT-51 cells (human). Kind of test: competition. As to conditions: modification not given.
With YTELYQQLNDLEACV [29], the IC50 turned out to be 5 µM.
On the same count and under the same terms, for QQIFNLFSTKDSSAA [21] the value was 70 µM.
The molecule FNLFSTKDSSAAWDE [22] came in with an IC50 above 500 µM.
On to KDSSAAWDETLLDKF [24], for which the IC50 came to 450 µM.
